Columns and labels:
Test in all cases: cell-based or functional assay
[1] = target: HIV-1 Env of pseudovirus 6540.v4.c1 (HIV-1)
[2] = target: HIV-1 Env of pseudovirus T278-50 (HIV-1)
[3] = target: HIV-1 Env of pseudovirus 235-47 (HIV-1)
[4] = target: HIV-1 Env of pseudovirus BJOX009000.02.4 (HIV-1)
[5] = target: HIV-1 Env of pseudovirus 0815.v3.c3 (HIV-1)
[6] = target: HIV-1 Env of pseudovirus T255-34 (HIV-1)
[7] = target: HIV-1 Env of pseudovirus 231965.c01 (HIV-1)
[8] = target: HIV-1 Env of pseudovirus C3347.c11 (HIV-1)
[9] = target: HIV-1 Env of pseudovirus 620345.c01 (HIV-1)
[10] = target: HIV-1 Env of pseudovirus P0402_c2_11 (HIV-1)
[11] = target: HIV-1 Env of pseudovirus A07412M1.vrc12 (HIV-1)
[12] = target: HIV-1 Env of pseudovirus 6041.v3.c23 (HIV-1)
[13] = target: HIV-1 Env of pseudovirus R1166.c01 (HIV-1)
[14] = target: HIV-1 Env of pseudovirus BJOX015000.11.5 (HIV-1)
[15] = target: HIV-1 Env of pseudovirus R2184.c04 (HIV-1)
[16] = target: HIV-1 Env of pseudovirus 6952.v1.c20 (HIV-1)
[17] = target: HIV-1 Env of pseudovirus BJOX025000.01.1 (HIV-1)
[18] = target: HIV-1 Env of pseudovirus 3016.v5.c45 (HIV-1)
[19] = target: HIV-1 Env of pseudovirus 3301.v1.c24 (HIV-1)
[20] = target: HIV-1 Env of pseudovirus C4118.c09 (HIV-1)
[21] = target: HIV-1 Env of pseudovirus 3103.v3.c10 (HIV-1)
[22] = target: HIV-1 Env of pseudovirus P1981_C5_3 (HIV-1)
[23] = target: HIV-1 Env of pseudovirus 6545.v4.c1 (HIV-1)
[24] = target: HIV-1 Env of pseudovirus BJOX028000.10.3 (HIV-1)
[25] = target: HIV-1 Env of pseudovirus 231966.c02 (HIV-1)
[26] = target: HIV-1 Env of pseudovirus 6480.v4.c25 (HIV-1)
[27] = target: HIV-1 Env of pseudovirus 211-9 (HIV-1)
[28] = target: HIV-1 Env of pseudovirus X1254_c3 (HIV-1)
[29] = target: HIV-1 Env of pseudovirus X2131_C1_B5 (HIV-1)

With 10-1074 (antibody) the IC50 neutralization (TZM.bl) [1] was over 50 µg/mL, the IC80 neutralization (TZM.bl) [1] was over 50 µg/mL and the IC50 neutralization (TZM.bl) [2] was 2.15 µg/mL. For the same substance, the IC80 neutralization (TZM.bl) [2] was 18.3 µg/mL, the IC50 neutralization (TZM.bl) [3] was 0.05 µg/mL and the IC80 neutralization (TZM.bl) [3] was 0.163 µg/mL. The IC50 neutralization (TZM.bl) [4] was over 50 µg/mL, the IC80 neutralization (TZM.bl) [4] was over 50 µg/mL and the IC50 neutralization (TZM.bl) [5] was 0.03 µg/mL. The IC80 neutralization (TZM.bl) [5] was 0.138 µg/mL, the IC50 neutralization (TZM.bl) [6] was over 50 µg/mL and the IC80 neutralization (TZM.bl) [6] was over 50 µg/mL. For the same substance, the IC50 neutralization (TZM.bl) [7] was over 50 µg/mL, the IC80 neutralization (TZM.bl) [7] was over 50 µg/mL and the IC50 neutralization (TZM.bl) [8] was over 50 µg/mL. The IC80 neutralization (TZM.bl) [8] was over 50 µg/mL, the IC50 neutralization (TZM.bl) [9] was over 50 µg/mL and the IC80 neutralization (TZM.bl) [9] was over 50 µg/mL. For the same substance, the IC50 neutralization (TZM.bl) [10] was 0.012 µg/mL, the IC80 neutralization (TZM.bl) [10] was 0.039 µg/mL and the IC50 neutralization (TZM.bl) [11] was under 0.001 µg/mL. It also gave an IC80 neutralization (TZM.bl) [11] of 0.048 µg/mL, an IC50 neutralization (TZM.bl) [12] of over 50 µg/mL and an IC80 neutralization (TZM.bl) [12] of over 50 µg/mL. For the same substance, the IC50 neutralization (TZM.bl) [13] was over 50 µg/mL, the IC80 neutralization (TZM.bl) [13] was over 50 µg/mL and the IC50 neutralization (TZM.bl) [14] was over 50 µg/mL. It also gave an IC80 neutralization (TZM.bl) [14] of over 50 µg/mL, an IC50 neutralization (TZM.bl) [15] of over 50 µg/mL and an IC80 neutralization (TZM.bl) [15] of over 50 µg/mL. The IC50 neutralization (TZM.bl) [16] was 0.037 µg/mL, the IC80 neutralization (TZM.bl) [16] was 0.138 µg/mL and the IC50 neutralization (TZM.bl) [17] was over 50 µg/mL. The IC80 neutralization (TZM.bl) [17] was over 50 µg/mL, the IC50 neutralization (TZM.bl) [18] was over 50 µg/mL and the IC80 neutralization (TZM.bl) [18] was over 50 µg/mL. The IC50 neutralization (TZM.bl) [19] was 0.013 µg/mL, the IC80 neutralization (TZM.bl) [19] was 0.042 µg/mL and the IC50 neutralization (TZM.bl) [20] was over 50 µg/mL. The IC80 neutralization (TZM.bl) [20] was over 50 µg/mL, the IC50 neutralization (TZM.bl) [21] was 0.037 µg/mL and the IC80 neutralization (TZM.bl) [21] was 0.101 µg/mL. For the same substance, the IC50 neutralization (TZM.bl) [22] was 0.005 µg/mL, the IC80 neutralization (TZM.bl) [22] was 0.017 µg/mL and the IC50 neutralization (TZM.bl) [23] was over 50 µg/mL. It also gave an IC80 neutralization (TZM.bl) [23] of over 50 µg/mL, an IC50 neutralization (TZM.bl) [24] of over 50 µg/mL and an IC80 neutralization (TZM.bl) [24] of over 50 µg/mL. For the same substance, the IC50 neutralization (TZM.bl) [25] was over 50 µg/mL, the IC80 neutralization (TZM.bl) [25] was over 50 µg/mL and the IC50 neutralization (TZM.bl) [26] was 0.009 µg/mL. For the same substance, the IC80 neutralization (TZM.bl) [26] was 0.041 µg/mL, the IC50 neutralization (TZM.bl) [27] was 0.112 µg/mL and the IC80 neutralization (TZM.bl) [27] was 0.425 µg/mL. It also gave an IC50 neutralization (TZM.bl) [28] of 0.089 µg/mL, an IC80 neutralization (TZM.bl) [28] of 0.297 µg/mL and an IC50 neutralization (TZM.bl) [29] of 0.016 µg/mL. It also gave an IC80 neutralization (TZM.bl) [29] of 0.064 µg/mL.
